Numbering of substitutions follows the chain as printed. Numbers in names are those of the source.
B1: GLS3000 N53R one-arm antibody (antibody, human IgG1, kappa, L234A L235A, N297A, name in Kabat numbering)
heavy: QVQLVESGGGVVQPGRSLRLSCAASGFTFSNAWMHWVRQAPGKGLEWVAQIKAKSNNYATYYAESVKGRFTISRDDSKNSLYLQMNSLKTEDTAVYYCRYVHYGAYYGVDAWGQGTTVTVSSASTKGPSVFPLAPSSKSTSGGTAALGCLVKDYFPEPVTVSWNSGALTSGVHTFPAVLQSSGLYSLSSVVTVPSSSLGTQTYICNVNHKPSNTKVDKKVEPKSCDKTHTCPPCPAPEAAGGPSVFLFPPKPKDTLMISRTPEVTCVVVDVSHEDPEVKFNWYVDGVEVHNAKTKPREEQYASTYRVVSVLTVLHQDWLNGKEYKCKVSNKALPAPIEKTISKAKGQPREPQVYTLPPSRCELTKNQVSLSCAVKGFYPSDIAVEWESNGQPENNYKTTPPVLDSDGSFFLVSKLTVDKSRWQQGNVFSCSVMHEALHNHYTQKSLSLSPDYKDDDDK
chain: EPKSSDKTHTCPPCPAPELLGGPSVFLFPPKPKDTLMISRTPEVTCVVVDVSHEDPEVKFNWYVDGVEVHNAKTKPREEQYNSTYRVVSVLTVLHQDWLNGKEYKCKVSNKALPAPIEKTISKAKGQPREPQVCTLPPSRDELTKNQVSLWCLVKGFYPSDIAVEWESNGQPENNYKTTPPVLDSDGSFFLYSKLTVDKSRWQQGNVFSCSVMHEALHNRYTQKSLSLSP
light: DIVMTQSPLSLPVTPGEPASISCRSSQSLVHSNRNTYLHWYQQKPGQAPRLLIYKVSRRFSGVPDRFSGSGSGTDFTLKISRVEAEDVGVYYCGQGTQVPYTFGQGTKLEIKRTVAAPSVFIFPPSDEQLKSGTASVVCLLNNFYPREAKVQWKVDNALQSGNSQESVTEQDSKDSTYSLSSTLTLSKADYEKHKVYACEVTHQGLSSPVTKSFNRGEC
B2: GLS3000 Q90E one-arm antibody (antibody, human IgG1, kappa, L234A L235A, N297A, name in Kabat numbering)
heavy: B1 heavy
chain: B1 chain
light: B1 light with R58N, Q95E
B3: GLS3000 P95S one-arm antibody (antibody, human IgG1, kappa, L234A L235A, N297A, name in Kabat numbering)
heavy: B1 heavy
chain: B1 chain
light: B1 light with R58N, P100S
B4: GLS3000 Q93E one-arm antibody (antibody, human IgG1, kappa, L234A L235A, N297A, name in Kabat numbering)
heavy: B1 heavy
chain: B1 chain
light: B1 light with R58N, Q98E
B5: GLS3000 Q90D one-arm antibody (antibody, human IgG1, kappa, L234A L235A, N297A, name in Kabat numbering)
heavy: B1 heavy
chain: B1 chain
light: B1 light with R58N, Q95D
B6: GLS3000 Q93A one-arm antibody (antibody, human IgG1, kappa, L234A L235A, N297A, name in Kabat numbering)
heavy: B1 heavy
chain: B1 chain
light: B1 light with R58N, Q98A
B7: GLS3000 N53V one-arm antibody (antibody, human IgG1, kappa, L234A L235A, N297A, name in Kabat numbering)
heavy: B1 heavy
chain: B1 chain
light: B1 light with R58V
B8: GLS3000 Q93S one-arm antibody (antibody, human IgG1, kappa, L234A L235A, N297A, name in Kabat numbering)
heavy: B1 heavy
chain: B1 chain
light: B1 light with R58N, Q98S
B9: GLS3000 Q93P one-arm antibody (antibody, human IgG1, kappa, L234A L235A, N297A, name in Kabat numbering)
heavy: B1 heavy
chain: B1 chain
light: B1 light with R58N, Q98P
B10: GLS3000 Q90Y one-arm antibody (antibody, human IgG1, kappa, L234A L235A, N297A, name in Kabat numbering)
heavy: B1 heavy
chain: B1 chain
light: B1 light with R58N, Q95Y
B11: GLS3000 P95A one-arm antibody (antibody, human IgG1, kappa, L234A L235A, N297A, name in Kabat numbering)
heavy: B1 heavy
chain: B1 chain
light: B1 light with R58N, P100A
B12: GLS3000 R24D one-arm antibody (antibody, human IgG1, kappa, L234A L235A, N297A, name in Kabat numbering)
heavy: B1 heavy
chain: B1 chain
light: B1 light with R24D, R58N
B13: GLS3000 P95L one-arm antibody (antibody, human IgG1, kappa, L234A L235A, N297A, name in Kabat numbering)
heavy: B1 heavy
chain: B1 chain
light: B1 light with R58N, P100L
B14: GLS3000 Q27P one-arm antibody (antibody, human IgG1, kappa, L234A L235A, N297A, name in Kabat numbering)
heavy: B1 heavy
chain: B1 chain
light: B1 light with Q27P, R58N
B15: GLS3000 Q93D one-arm antibody (antibody, human IgG1, kappa, L234A L235A, N297A, name in Kabat numbering)
heavy: B1 heavy
chain: B1 chain
light: B1 light with R58N, Q98D
B16: GLS3000 Q90P one-arm antibody (antibody, human IgG1, kappa, L234A L235A, N297A, name in Kabat numbering)
heavy: B1 heavy
chain: B1 chain
light: B1 light with R58N, Q95P
B17: GLS3000 P95E one-arm antibody (antibody, human IgG1, kappa, L234A L235A, N297A, name in Kabat numbering)
heavy: B1 heavy
chain: B1 chain
light: B1 light with R58N, P100E
B18: GLS3000 Q27D one-arm antibody (antibody, human IgG1, kappa, L234A L235A, N297A, name in Kabat numbering)
heavy: B1 heavy
chain: B1 chain
light: B1 light with Q27D, R58N
B19: GLS3000 N53W one-arm antibody (antibody, human IgG1, kappa, L234A L235A, N297A, name in Kabat numbering)
heavy: B1 heavy
chain: B1 chain
light: B1 light with R58W
B20: GLS3000 N53T one-arm antibody (antibody, human IgG1, kappa, L234A L235A, N297A, name in Kabat numbering)
heavy: B1 heavy
chain: B1 chain
light: B1 light with R58T
B21: GLS3000 N53S one-arm antibody (antibody, human IgG1, kappa, L234A L235A, N297A, name in Kabat numbering)
heavy: B1 heavy
chain: B1 chain
light: B1 light with R58S
B22: GLS3000 Q27L one-arm antibody (antibody, human IgG1, kappa, L234A L235A, N297A, name in Kabat numbering)
heavy: B1 heavy
chain: B1 chain
light: B1 light with Q27L, R58N
B23: GLS3000 Q90S one-arm antibody (antibody, human IgG1, kappa, L234A L235A, N297A, name in Kabat numbering)
heavy: B1 heavy
chain: B1 chain
light: B1 light with R58N, Q95S
B24: GLS3000 N53Y one-arm antibody (antibody, human IgG1, kappa, L234A L235A, N297A, name in Kabat numbering)
heavy: B1 heavy
chain: B1 chain
light: B1 light with R58Y
B25: GLS3000 P95G one-arm antibody (antibody, human IgG1, kappa, L234A L235A, N297A, name in Kabat numbering)
heavy: B1 heavy
chain: B1 chain
light: B1 light with R58N, P100G
B26: GLS3000 R24A one-arm antibody (antibody, human IgG1, kappa, L234A L235A, N297A, name in Kabat numbering)
heavy: B1 heavy
chain: B1 chain
light: B1 light with R24A, R58N
B27: GLS3000 Q93Y one-arm antibody (antibody, human IgG1, kappa, L234A L235A, N297A, name in Kabat numbering)
heavy: B1 heavy
chain: B1 chain
light: B1 light with R58N, Q98Y
B28: GLS3000 Q27R one-arm antibody (antibody, human IgG1, kappa, L234A L235A, N297A, name in Kabat numbering)
heavy: B1 heavy
chain: B1 chain
light: B1 light with Q27R, R58N
B29: GLS3000 P95D one-arm antibody (antibody, human IgG1, kappa, L234A L235A, N297A, name in Kabat numbering)
heavy: B1 heavy
chain: B1 chain
light: B1 light with R58N, P100D
B30: GLS3000 Q27E one-arm antibody (antibody, human IgG1, kappa, L234A L235A, N297A, name in Kabat numbering)
heavy: B1 heavy
chain: B1 chain
light: B1 light with Q27E, R58N
B31: GLS3000 Q93R one-arm antibody (antibody, human IgG1, kappa, L234A L235A, N297A, name in Kabat numbering)
heavy: B1 heavy
chain: B1 chain
light: B1 light with R58N, Q98R
B32: GLS3000 Q90A one-arm antibody (antibody, human IgG1, kappa, L234A L235A, N297A, name in Kabat numbering)
heavy: B1 heavy
chain: B1 chain
light: B1 light with R58N, Q95A

Biological target: T1, CD3ε homodimer protein (human, UniProt P07766 23-126, limits assumed)
T1 construct: also called CD3 (CD3ε)
Test: SPR Biacore T200, CD3ε homodimer on chip;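 also: Light-chain single-residue variant antibodies injected over amine-coupled CD3ε homodimer on a CM4 chip at 25 °C, bound amount divided by that of the GLS3000-containing antibody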

T1 sequence (P07766 23-126 limits assumed): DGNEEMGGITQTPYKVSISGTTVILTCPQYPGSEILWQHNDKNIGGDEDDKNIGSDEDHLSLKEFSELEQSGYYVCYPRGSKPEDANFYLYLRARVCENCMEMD

| Binder | ratio of amount bound vs unaltered GLS3000 |
| --- | --- |
| B1 | 1.58 |
| B2 | 0.86 |
| B3 | 0.43 |
| B4 | 0.75 |
| B5 | 0.19 |
| B6 | 0.85 |
| B7 | 0.56 |
| B8 | 0.96 |
| B9 | 0.25 |
| B10 | 0.17 |
| B11 | 0.63 |
| B12 | 0.75 |
| B13 | 0.24 |
| B14 | 0.29 |
| B15 | 0.72 |
| B16 | 0.27 |

| Binder | ratio of amount bound vs unaltered GLS3000 |
| --- | --- |
| B17 | 0.39 |
| B18 | 0.85 |
| B19 | 0.81 |
| B20 | 0.56 |
| B21 | 0.69 |
| B22 | 0.92 |
| B23 | 0.73 |
| B24 | 0.67 |
| B25 | 0.37 |
| B26 | 0.86 |
| B27 | 0.87 |
| B28 | 1.19 |
| B29 | 0.24 |
| B30 | 0.88 |
| B31 | 1.13 |
| B32 | 0.5 |
